Here are results for three substances from PMC6817665.

Assay [1] addresses N-terminally fluorescein-labeled CEP55 ZF mutant E460A (human) (UniProt Q53EZ4). As to the kind of experiment: fluorescence polarisation. In general terms: Polarisation of emitted light reports the rotation of a fluorescent probe.
For assay [2], the target named is CEP55 His-NOA (His-tag version of the human CEP55 NOA fragment, residues 304–396) (human) (UniProt Q53EZ4). As to the kind of experiment: BLI. For orientation: In BLI a coated tip is dipped into the sample, and binding shifts an interference pattern.
Chain of CEP55 His-NOA (His-tag version of the human CEP55 NOA fragment, residues 304–396) (human) (Q53EZ4 304-396): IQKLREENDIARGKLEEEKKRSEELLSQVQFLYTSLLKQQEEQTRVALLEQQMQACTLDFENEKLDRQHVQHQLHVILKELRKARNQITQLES
Assay [3] concerns the target mixture of biotinylated K63 poly-ubiquitin chains (Ub2-7) (UniProt P0CG48). As to the kind of experiment: BLI.

Chain of N-terminally fluorescein-labeled CEP55 ZF mutant E460A (human) (Q53EZ4 435-464 E460A): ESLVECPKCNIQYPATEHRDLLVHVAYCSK

For the substance “mono-ubiquitin (from UniProt P0CG48 1-76) (natural protein)”, the fold weaker affinity than WT in assay [1] stood at 20 fold. Turning to “K63-linked tetra-ubiquitin (Ub4) (from UniProt P0CG48 1-76) (complex)”, in assay [2], the fold by which the KD is higher than that of M1-linked Ub4 was 30 fold.

For the substance “Strep-tag II CEP55 ZF (StrepII-tag version of CEP55 ZF peptide, residues 435–464) (from UniProt Q53EZ4-1 435-464)”, in assay [3], the equilibrium dissociation constant (Kd) (usually the free concentration of one partner at which half of the binding sites on the other are occupied at equilibrium, for simple one-to-one binding) was 2100 nM.
